Assay results: US12630600B2 (MEDIMMUNE LIMITED, priority 2022, dated 2026)
Starred links: 1 amine or outer side, 2 acyl side, 3 side chain; linkers in the order of their positions; H or OH if unused. Non-standard residues stand in square brackets, D forms with d. Groups on a side chain read outwards from the residue. No end group written: not given here. *: point of attachment. C20 diacid = O=C(O)CCCCCCCCCCCCCCCCCCC(=O)*; C18 diacid = O=C(O)CCCCCCCCCCCCCCCCC(=O)*; γGlu = O=C(O)[C@H](CCC(=O)[*:2])N[*:1]; αMeF = C[C@](N)(Cc1ccccc1)C(=O)O; AEEA = NCCOCCOCC(=O)O; Aib = CC(C)(N)C(=O)O

B1: Peptide 144 (peptide)
peptide: H[Aib]QGTFTSDVSK[αMeF]LDSK([γGlu-γGlu-AEEA-AEEA-γGlu-γGlu-C18 diacid])RARDFVRWLLE[Aib]G-OH
modifications: N-terminus assumed
SMILES: CC(C)C[C@H](NC(=O)[C@H](Cc1c[nH]c2ccccc12)NC(=O)[C@H](CCCNC(=N)N)NC(=O)[C@@H](NC(=O)[C@H](Cc1ccccc1)NC(=O)[C@H](CC(=O)O)NC(=O)[C@H](CCCNC(=N)N)NC(=O)[C@H](C)NC(=O)[C@H](CCCNC(=N)N)NC(=O)[C@H](CCCCNC(=O)CC[C@H](NC(=O)CC[C@H](NC(=O)COCCOCCNC(=O)COCCOCCNC(=O)CC[C@H](NC(=O)CC[C@H](NC(=O)CCCCCCCCCCCCCCCCC(=O)O)C(=O)O)C(=O)O)C(=O)O)C(=O)O)NC(=O)[C@H](CO)NC(=O)[C@H](CC(=O)O)NC(=O)[C@H](CC(C)C)NC(=O)[C@](C)(Cc1ccccc1)NC(=O)[C@H](CCCCN)NC(=O)[C@H](CO)NC(=O)[C@@H](NC(=O)[C@H](CC(=O)O)NC(=O)[C@H](CO)NC(=O)[C@@H](NC(=O)[C@H](Cc1ccccc1)NC(=O)[C@@H](NC(=O)CNC(=O)[C@H](CCC(N)=O)NC(=O)C(C)(C)NC(=O)[C@@H](N)Cc1c[nH]cn1)[C@@H](C)O)[C@@H](C)O)C(C)C)C(C)C)C(=O)N[C@@H](CC(C)C)C(=O)N[C@@H](CCC(=O)O)C(=O)NC(C)(C)C(=O)NCC(=O)O
B2: Peptide 141 (peptide)
peptide: H[Aib]QGTFTSDVSK[αMeF]LDSK([AEEA-AEEA-γGlu-C18 diacid])RAQDFVAWLLE[Aib]G-OH
modifications: N-terminus assumed
SMILES: CC(C)C[C@H](NC(=O)[C@H](Cc1c[nH]c2ccccc12)NC(=O)[C@H](C)NC(=O)[C@@H](NC(=O)[C@H](Cc1ccccc1)NC(=O)[C@H](CC(=O)O)NC(=O)[C@H](CCC(N)=O)NC(=O)[C@H](C)NC(=O)[C@H](CCCNC(=N)N)NC(=O)[C@H](CCCCNC(=O)COCCOCCNC(=O)COCCOCCNC(=O)CC[C@H](NC(=O)CCCCCCCCCCCCCCCCC(=O)O)C(=O)O)NC(=O)[C@H](CO)NC(=O)[C@H](CC(=O)O)NC(=O)[C@H](CC(C)C)NC(=O)[C@](C)(Cc1ccccc1)NC(=O)[C@H](CCCCN)NC(=O)[C@H](CO)NC(=O)[C@@H](NC(=O)[C@H](CC(=O)O)NC(=O)[C@H](CO)NC(=O)[C@@H](NC(=O)[C@H](Cc1ccccc1)NC(=O)[C@@H](NC(=O)CNC(=O)[C@H](CCC(N)=O)NC(=O)C(C)(C)NC(=O)[C@@H](N)Cc1c[nH]cn1)[C@@H](C)O)[C@@H](C)O)C(C)C)C(C)C)C(=O)N[C@@H](CC(C)C)C(=O)N[C@@H](CCC(=O)O)C(=O)NC(C)(C)C(=O)NCC(=O)O
B3: Peptide 137 (peptide)
peptide: H[Aib]QGTFTSDVSK[αMeF]LDSK([γGlu-γGlu-AEEA-AEEA-γGlu-γGlu-C18 diacid])RAQDFVRWLLEG[Aib]-OH
modifications: N-terminus assumed
SMILES: CC(C)C[C@H](NC(=O)[C@H](CC(C)C)NC(=O)[C@H](Cc1c[nH]c2ccccc12)NC(=O)[C@H](CCCNC(=N)N)NC(=O)[C@@H](NC(=O)[C@H](Cc1ccccc1)NC(=O)[C@H](CC(=O)O)NC(=O)[C@H](CCC(N)=O)NC(=O)[C@H](C)NC(=O)[C@H](CCCNC(=N)N)NC(=O)[C@H](CCCCNC(=O)CC[C@H](NC(=O)CC[C@H](NC(=O)COCCOCCNC(=O)COCCOCCNC(=O)CC[C@H](NC(=O)CC[C@H](NC(=O)CCCCCCCCCCCCCCCCC(=O)O)C(=O)O)C(=O)O)C(=O)O)C(=O)O)NC(=O)[C@H](CO)NC(=O)[C@H](CC(=O)O)NC(=O)[C@H](CC(C)C)NC(=O)[C@](C)(Cc1ccccc1)NC(=O)[C@H](CCCCN)NC(=O)[C@H](CO)NC(=O)[C@@H](NC(=O)[C@H](CC(=O)O)NC(=O)[C@H](CO)NC(=O)[C@@H](NC(=O)[C@H](Cc1ccccc1)NC(=O)[C@@H](NC(=O)CNC(=O)[C@H](CCC(N)=O)NC(=O)C(C)(C)NC(=O)[C@@H](N)Cc1c[nH]cn1)[C@@H](C)O)[C@@H](C)O)C(C)C)C(C)C)C(=O)N[C@@H](CCC(=O)O)C(=O)NCC(=O)NC(C)(C)C(=O)O
B4: Peptide 138 (peptide)
peptide: H[Aib]QGTFTSDVSK[αMeF]LDSK([γGlu-γGlu-AEEA-AEEA-γGlu-γGlu-C18 diacid])RAQDFVRWLLE[Aib]G-OH
modifications: N-terminus assumed
SMILES: CC(C)C[C@H](NC(=O)[C@H](Cc1c[nH]c2ccccc12)NC(=O)[C@H](CCCNC(=N)N)NC(=O)[C@@H](NC(=O)[C@H](Cc1ccccc1)NC(=O)[C@H](CC(=O)O)NC(=O)[C@H](CCC(N)=O)NC(=O)[C@H](C)NC(=O)[C@H](CCCNC(=N)N)NC(=O)[C@H](CCCCNC(=O)CC[C@H](NC(=O)CC[C@H](NC(=O)COCCOCCNC(=O)COCCOCCNC(=O)CC[C@H](NC(=O)CC[C@H](NC(=O)CCCCCCCCCCCCCCCCC(=O)O)C(=O)O)C(=O)O)C(=O)O)C(=O)O)NC(=O)[C@H](CO)NC(=O)[C@H](CC(=O)O)NC(=O)[C@H](CC(C)C)NC(=O)[C@](C)(Cc1ccccc1)NC(=O)[C@H](CCCCN)NC(=O)[C@H](CO)NC(=O)[C@@H](NC(=O)[C@H](CC(=O)O)NC(=O)[C@H](CO)NC(=O)[C@@H](NC(=O)[C@H](Cc1ccccc1)NC(=O)[C@@H](NC(=O)CNC(=O)[C@H](CCC(N)=O)NC(=O)C(C)(C)NC(=O)[C@@H](N)Cc1c[nH]cn1)[C@@H](C)O)[C@@H](C)O)C(C)C)C(C)C)C(=O)N[C@@H](CC(C)C)C(=O)N[C@@H](CCC(=O)O)C(=O)NC(C)(C)C(=O)NCC(=O)O
B5: Peptide 143 (peptide)
peptide: H[Aib]QGTFTSDVSK[αMeF]LDSK([AEEA-AEEA-γGlu-C18 diacid])RARDFVQWLLE[Aib]G-OH
modifications: N-terminus assumed
SMILES: CC(C)C[C@H](NC(=O)[C@H](Cc1c[nH]c2ccccc12)NC(=O)[C@H](CCC(N)=O)NC(=O)[C@@H](NC(=O)[C@H](Cc1ccccc1)NC(=O)[C@H](CC(=O)O)NC(=O)[C@H](CCCNC(=N)N)NC(=O)[C@H](C)NC(=O)[C@H](CCCNC(=N)N)NC(=O)[C@H](CCCCNC(=O)COCCOCCNC(=O)COCCOCCNC(=O)CC[C@H](NC(=O)CCCCCCCCCCCCCCCCC(=O)O)C(=O)O)NC(=O)[C@H](CO)NC(=O)[C@H](CC(=O)O)NC(=O)[C@H](CC(C)C)NC(=O)[C@](C)(Cc1ccccc1)NC(=O)[C@H](CCCCN)NC(=O)[C@H](CO)NC(=O)[C@@H](NC(=O)[C@H](CC(=O)O)NC(=O)[C@H](CO)NC(=O)[C@@H](NC(=O)[C@H](Cc1ccccc1)NC(=O)[C@@H](NC(=O)CNC(=O)[C@H](CCC(N)=O)NC(=O)C(C)(C)NC(=O)[C@@H](N)Cc1c[nH]cn1)[C@@H](C)O)[C@@H](C)O)C(C)C)C(C)C)C(=O)N[C@@H](CC(C)C)C(=O)N[C@@H](CCC(=O)O)C(=O)NC(C)(C)C(=O)NCC(=O)O
B6: Peptide 142 (peptide)
peptide: H[Aib]QGTFTSDVSK[αMeF]LDSK([AEEA-AEEA-γGlu-C18 diacid])RARDFVAWLLE[Aib]G-OH
modifications: N-terminus assumed
SMILES: CC(C)C[C@H](NC(=O)[C@H](Cc1c[nH]c2ccccc12)NC(=O)[C@H](C)NC(=O)[C@@H](NC(=O)[C@H](Cc1ccccc1)NC(=O)[C@H](CC(=O)O)NC(=O)[C@H](CCCNC(=N)N)NC(=O)[C@H](C)NC(=O)[C@H](CCCNC(=N)N)NC(=O)[C@H](CCCCNC(=O)COCCOCCNC(=O)COCCOCCNC(=O)CC[C@H](NC(=O)CCCCCCCCCCCCCCCCC(=O)O)C(=O)O)NC(=O)[C@H](CO)NC(=O)[C@H](CC(=O)O)NC(=O)[C@H](CC(C)C)NC(=O)[C@](C)(Cc1ccccc1)NC(=O)[C@H](CCCCN)NC(=O)[C@H](CO)NC(=O)[C@@H](NC(=O)[C@H](CC(=O)O)NC(=O)[C@H](CO)NC(=O)[C@@H](NC(=O)[C@H](Cc1ccccc1)NC(=O)[C@@H](NC(=O)CNC(=O)[C@H](CCC(N)=O)NC(=O)C(C)(C)NC(=O)[C@@H](N)Cc1c[nH]cn1)[C@@H](C)O)[C@@H](C)O)C(C)C)C(C)C)C(=O)N[C@@H](CC(C)C)C(=O)N[C@@H](CCC(=O)O)C(=O)NC(C)(C)C(=O)NCC(=O)O
B7: Peptide 136 (peptide)
peptide: H[Aib]QGTFTSDVSK[αMeF]LDSK([γGlu-γGlu-AEEA-AEEA-γGlu-γGlu-C18 diacid])RARDFVRWLLE[Aib]G-OH
modifications: N-terminus assumed
SMILES: CC(C)C[C@H](NC(=O)[C@H](Cc1c[nH]c2ccccc12)NC(=O)[C@H](CCCNC(=N)N)NC(=O)[C@@H](NC(=O)[C@H](Cc1ccccc1)NC(=O)[C@H](CC(=O)O)NC(=O)[C@H](CCCNC(=N)N)NC(=O)[C@H](C)NC(=O)[C@H](CCCNC(=N)N)NC(=O)[C@H](CCCCNC(=O)CC[C@H](NC(=O)CC[C@H](NC(=O)COCCOCCNC(=O)COCCOCCNC(=O)CC[C@H](NC(=O)CC[C@H](NC(=O)CCCCCCCCCCCCCCCCC(=O)O)C(=O)O)C(=O)O)C(=O)O)C(=O)O)NC(=O)[C@H](CO)NC(=O)[C@H](CC(=O)O)NC(=O)[C@H](CC(C)C)NC(=O)[C@](C)(Cc1ccccc1)NC(=O)[C@H](CCCCN)NC(=O)[C@H](CO)NC(=O)[C@@H](NC(=O)[C@H](CC(=O)O)NC(=O)[C@H](CO)NC(=O)[C@@H](NC(=O)[C@H](Cc1ccccc1)NC(=O)[C@@H](NC(=O)CNC(=O)[C@H](CCC(N)=O)NC(=O)C(C)(C)NC(=O)[C@@H](N)Cc1c[nH]cn1)[C@@H](C)O)[C@@H](C)O)C(C)C)C(C)C)C(=O)N[C@@H](CC(C)C)C(=O)N[C@@H](CCC(=O)O)C(=O)NC(C)(C)C(=O)NCC(=O)O

molecular target: human glucagon receptor (human, UniProt P47871); experiment: cell-based or functional assay

**Q.** How did the “cAMP production, hGluc-R EC50 (pM)” value turn out when B1 was run?
**A.** Its value is 702 pM.

**Q.** For H[Aib]QGTFTSDVSK[αMeF]LDSK([γGlu-γGlu-AEEA-AEEA-γGlu-γGlu-C20 diacid])RAQDFVRWLLE[Aib]G-OH [Peptide 139], which “cAMP production, hGluc-R EC50 (pM)” value is on record?
**A.** Its value is 984 pM.

**Q.** Which “cAMP production, hGluc-R EC50 (pM)” value does the source give for B2 here?
**A.** Its value is 392 pM.

**Q.** Which “cAMP production, hGluc-R EC50 (pM)” value does the source give for B3 here?
**A.** The value was 268 pM.

**Q.** How did the “cAMP production, hGluc-R EC50 (pM)” value turn out when B4 was run?
**A.** The value was 184 pM.

**Q.** How did the “cAMP production, hGluc-R EC50 (pM)” value turn out when B5 was run?
**A.** Its value is 32.6 pM.

**Q.** For B6, which “cAMP production, hGluc-R EC50 (pM)” value is on record?
**A.** The value was 108 pM.

**Q.** B7 was tested. Which “cAMP production, hGluc-R EC50 (pM)” value did it give?
**A.** The value was 509 pM.

molecular target: human GLP-1 receptor (human, UniProt P43220); experiment: cell-based or functional assay

**Q.** How did the “cAMP production, hGLP-1R EC50 (pM)” value turn out when B1 was run?
**A.** The value was 45.2 pM.

**Q.** H[Aib]QGTFTSDVSK[αMeF]LDSK([γGlu-γGlu-AEEA-AEEA-γGlu-γGlu-C20 diacid])RAQDFVRWLLE[Aib]G-OH [Peptide 139] was tested. Which “cAMP production, hGLP-1R EC50 (pM)” value did it give?
**A.** The value was 630 pM.

**Q.** B2 was tested. Which “cAMP production, hGLP-1R EC50 (pM)” value did it give?
**A.** The value was 264 pM.

**Q.** For B3, which “cAMP production, hGLP-1R EC50 (pM)” value is on record?
**A.** Its value is 143 pM.

**Q.** For B4, which “cAMP production, hGLP-1R EC50 (pM)” value is on record?
**A.** The value was 104 pM.

**Q.** How did the “cAMP production, hGLP-1R EC50 (pM)” value turn out when B5 was run?
**A.** Its value is 19.1 pM.

**Q.** How did the “cAMP production, hGLP-1R EC50 (pM)” value turn out when B6 was run?
**A.** Its value is 59.4 pM.

**Q.** With B7 as the binder, how does the “cAMP production, hGLP-1R EC50 (pM)” value read?
**A.** The value was 45.2 pM.
